Laboratory results as given in PMC9967328 (International Journal of Molecular Sciences, 2023).

Experiments:
[1] = target: the molecule itself; assay: SEC; analytical SEC, 10 µM enzyme loaded on Superdex 200 Increase 10/300, 50 mM HEPES pH 8.0, 150 mM NaCl, 20 µM PLP, samples incubated at 25 °C for 20 min; oligomeric state from the elution volume; the limits of K_Dtet-dim are of the step tetramer to dimers
[2] = target: the molecule itself; assay: as above; remark: listed apart in the source

B1: human ornithine aminotransferase R154L pathogenic variant (enzyme)
chain: TSVATKKTVQGPPTSDDIFEREYKYGAHNYHPLPVALERGKGIYLWDVEGRKYFDFLSSYSAVNQGHCHPKIVNALKSQVDKLTLTSRAFYNNVLGEYEEYITKLFNYHKVLPMNTGVEAGETACKLALKWGYTVKGIQKYKAKIVFAAGNFWGRTLSAISSSTDPTSYDGFGPFMPGFDIIPYNDLPALERALQDPNVAAFMVEPIQGEAGVVVPDPGYLMGVRELCTRHQVLFIADEIQTGLARTGRWLAVDYENVRPDIVLLGKALSGGLYPVSAVLCDDDIMLTIKPGEHGSTYGGNPLGCRVAIAALEVLEEENLAENADKLGIILRNELMKLPSDVVTAVRGKGLLNAIVIKETKDWDAWKVCLRLRDNGLLAKPTHGDIIRFAPPLVIKEDELRESIEIINKTILSF
modifications: PLP on Lys292 (internal aldimine)
- Kd [1]: > 10 µM
- stoichiometry N [2]: 2
